The record followed here is the Immune Epitope Database (IEDB).

Assay [1] deals with HLA-B*07:02. The assay can be described thus: IEDB peptide-MHC binding, purified MHC/competitive/radioactivity; ≥ and ≤ were set here for values at or beyond the usual limits of such assays.
The target of a further assay is HLA-A*02:01. The description is as above. Conditions: source organism: Plasmodium falciparum.
The target in assay [2] is HLA-B*07:02. The experiment in a line: IEDB peptide-MHC binding, purified MHC/competitive/radioactivity; filed as Kd, often an IC50 or EC50 that approximates it; ≥ and ≤ were set here for values at or beyond the usual limits of such assays. Conditions: source organism: Human immunodeficiency virus 1.
Where [3] appears, read: source organism: Human immunodeficiency virus 1.

By IC50 is commonly meant the concentration needed to halve the response being measured. For CPKVSFEPI, the IC50 with HLA-B*07:02 [1] (setting [3]) turned out to be 127 nM. For the sequence GLLGVVSTV, in the assay with HLA-A*02:01, the IC50 was found to be 24.3 nM. The term Kd denotes the concentration at which binding is half-saturated. In the case of GPKVKQWPI, the dissociation constant Kd in the assay with HLA-B*07:02 [2] turned out to be 5.57 µM. Turning to HPVHAGPIA, the half-maximal inhibitory concentration (IC50) with HLA-B*07:02 [1] (setting [3]) is 57 nM. For ILSVSSFLFV, in the assay with HLA-A*02:01, the concentration for half-maximal inhibition (IC50) turned out to be 208 nM. Take IPIHYCAPA: the half-inhibitory concentration (IC50) in the assay with HLA-B*07:02 [1] (setting [3]) worked out at 445 nM. As to QPRAPIRPIPT, the IC50 with HLA-B*07:02 [1] (source organism: Human herpesvirus 4 strain B95-8) amounted to 110 nM. On to RPPIFIRRL, for which the IC50 in the assay with HLA-B*07:02 [1] (source organism: human gammaherpesvirus 4) was 21 nM.

Consider TPGIRYQYNI, for which, in the assay with HLA-B*07:02 [2], the Kd amounted to 8.62 µM. TPYAGEPAPF: in the assay with HLA-B*07:02 [1] (source organism: Plasmodium falciparum), the 50% inhibitory concentration (IC50) was found to be 31 nM. For WPLTEEKIKI, the Kd in the assay with HLA-B*07:02 [2] was 19.4 µM. For the sequence YPLASLRSLF, the IC50 with HLA-B*07:02 [1] (setting [3]) stood at 408 nM.
